This note sets out measurements from patent US20260104381, “ELECTRODEPOSITED METAL MODIFIED LASER SCRIBED GRAPHENE ELECTRODE AND METHOD” (KING ABDULLAH UNIVERSITY OF SCIENCE AND TECHNOLOGY, published 2026).

This data set deals with HER2 (human epidermal growth factor receptor 2) (Homo sapiens, UniProt P04626 P04626:23-652). The data set can be described thus: electrochemical SWV aptasensor; 0.1-200 ng/mL HER2 in 10 mM PBS pH 7.4, 1 h; MCH/BSA blocked; LOD 0.008 ng/mL; also detected in spiked undiluted human serum; protein source not stated. As to conditions: label: immobilized via thiol on gold nanostructured laser-scribed graphene electrode. Here is the method: The concentrated Mercaptohexanol (MCH) solution was first prepared in ultrapure water and then further diluted in 10 mM PBS (pH 7.4). 4 μM of DNA aptamer 410 was mixed with 20 μM of MCH 412 prepared with 10 mM PBS (pH 7.4) to obtain a homogenized solution. As the next step, 6 μL from this mixture was placed in step 402 onto the LSG-AuNS modified working electrode 104 and incubated for 16 h, as shown in FIG. 4B. The MCH 412 covers a first part of the surface of the nanostructure 110 while the aptamer 410 covers a second part of the surface of the nanostructure 110. However, a third part of the surface of the nanostructure 110 is not covered by either of the MCH or the aptamer. The LSG-AuNS electrode surface was cleaned with 10 mM PBS (pH 7.4) to remove the excess of aptamer molecules 410 and MCH 412. The aptasensor was incubated in step 405 in 0.1 mg/mL of BSA solution 414 in 10 mM PBS (pH 7.4) for 45 min to cover a third part of the surface of the nanostructure 110, to reduce non-specific adsorption, as illustrated in FIG. 4C. In one application, the sum of the surfaces of the first to third parts covers the entire surface of the nanostructure 110. However, in another application, the sum of the first to third parts cover less than the entire surface of the nanostructure 110. Finally, the aptamer modified electrode 104 was washed with 10 mM PBS (pH 7.4) for at least five times. […]

B1: thiol-modified anti-Her-2 DNA aptamer (APT) (ssDNA)
DNA: AACCGCCCAAATCCCTAAGAGTCTGCACTTGTCATTTTGTATATGTATTTGGTTTTTGGCTCTCACAGACACACTACACACGCACA
modifications: 5'-ThiC6 (thiol C6 linker)
Take B1: the binding result is listed as “binds”.
